The labels stand for the following.
B1: 93H2 (antibody, human IgG1, kappa, V domains shown)
VH: EVQLVQSGAEVKKPGASVKVSCKASGYTFTGYYMHWVRQAPGQGLEWMGWINPNSGATNFPQKFQGRVTMTRDTSITTAYMDLSRLRSDDTAVYYCARESGDDAFDIWGQGTMVTVSS
VL: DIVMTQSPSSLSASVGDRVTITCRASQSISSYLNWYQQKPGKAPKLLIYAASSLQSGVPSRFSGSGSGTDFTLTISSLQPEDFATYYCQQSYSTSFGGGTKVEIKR
notes: also called parental 93H2; 93H2 mAb
B2: Abcs35 (antibody, human IgG1, kappa)
heavy: EVQLVQSGAEVKKPGASVKVSCKASGYTFTGYYMHWVRQAPGQGLEWMGWINPKNGDTEFPQKFQGRVTMTRDTSITTAYMDLSRLRSDDTAVYYCARESGDDAFDIWGQGTMVTVSSASTKGPSVFPLAPSSKSTSGGTAALGCLVKDYFPEPVTVSWNSGALTSGVHTFPAVLQSSGLYSLSSVVTVPSSSLGTQTYICNVNHKPSNTKVDKKVEPKSCDKTHTCPPCPAPEAAGAPSVFLFPPKPKDTLMISRTPEVTCVVVDVSHEDPEVKFNWYVDGVEVHNAKTKPREEQYNSTYRVVSVLTVLHQDWLNGKEYKCKVSNKALPAPIEKTISKAKGQPREPQVYTLPPSREEMTKNQVSLTCLVKGFYPSDIAVEWESNGQPENNYKTTPPVLDSDGSFFLYSKLTVDKSRWQQGNVFSCSVMHEALHNHYTQKSLSLSPGK
light: DIVMTQSPSSLSASVGDRVTITCRASQSISSYLNWYQQKPGKAPKLLIYAASSLQSGVPSRFSGSGSGTDFTLTISSLQPEDFATYYCQQSVGLFFGGGTKVEIKRTVAAPSVFIFPPSDEQLKSGTASVVCLLNNFYPREAKVQWKVDNALQSGNSQESVTEQDSKDSTYSLSSTLTLSKADYEKHKVYACEVTHQGLSSPVTKSFNRGEC
notes: fully human IgG1; VH of Ab96 with VL of Ab123
B3: Abcs25 (antibody, human IgG1, kappa, V domains shown)
VH: B1 VH with N54K, S55D, A57D, N59E
VL: DIVMTQSPSSLSASVGDRVTITCRASQSISSYLNWYQQKPGKAPKLLIYAASSLQSGVPSRFSGSGSGTDFTLTISSLQPEDFATYYCQQSVGLSFGGGTKVEIKR
notes: chain-shuffled IgG

Our source for the EC50 values is patent US20200157212A1 (Pfizer, published 2020).

One may read the EC50 as the concentration at which the effect is half-maximal. A high value points to a less potent agent.

Numbering of substitutions follows the chain as printed.

This assay concerns the target T1, Rat ROBO2 on cells (rat, UniProt Q7TPD3 22-1469 (mouse entry)).
T1 construct: overexpressed on HEK293 cells in flow cytometry; endogenous on rat SVZ neuronal explants in the SVZa assay
T1 chain: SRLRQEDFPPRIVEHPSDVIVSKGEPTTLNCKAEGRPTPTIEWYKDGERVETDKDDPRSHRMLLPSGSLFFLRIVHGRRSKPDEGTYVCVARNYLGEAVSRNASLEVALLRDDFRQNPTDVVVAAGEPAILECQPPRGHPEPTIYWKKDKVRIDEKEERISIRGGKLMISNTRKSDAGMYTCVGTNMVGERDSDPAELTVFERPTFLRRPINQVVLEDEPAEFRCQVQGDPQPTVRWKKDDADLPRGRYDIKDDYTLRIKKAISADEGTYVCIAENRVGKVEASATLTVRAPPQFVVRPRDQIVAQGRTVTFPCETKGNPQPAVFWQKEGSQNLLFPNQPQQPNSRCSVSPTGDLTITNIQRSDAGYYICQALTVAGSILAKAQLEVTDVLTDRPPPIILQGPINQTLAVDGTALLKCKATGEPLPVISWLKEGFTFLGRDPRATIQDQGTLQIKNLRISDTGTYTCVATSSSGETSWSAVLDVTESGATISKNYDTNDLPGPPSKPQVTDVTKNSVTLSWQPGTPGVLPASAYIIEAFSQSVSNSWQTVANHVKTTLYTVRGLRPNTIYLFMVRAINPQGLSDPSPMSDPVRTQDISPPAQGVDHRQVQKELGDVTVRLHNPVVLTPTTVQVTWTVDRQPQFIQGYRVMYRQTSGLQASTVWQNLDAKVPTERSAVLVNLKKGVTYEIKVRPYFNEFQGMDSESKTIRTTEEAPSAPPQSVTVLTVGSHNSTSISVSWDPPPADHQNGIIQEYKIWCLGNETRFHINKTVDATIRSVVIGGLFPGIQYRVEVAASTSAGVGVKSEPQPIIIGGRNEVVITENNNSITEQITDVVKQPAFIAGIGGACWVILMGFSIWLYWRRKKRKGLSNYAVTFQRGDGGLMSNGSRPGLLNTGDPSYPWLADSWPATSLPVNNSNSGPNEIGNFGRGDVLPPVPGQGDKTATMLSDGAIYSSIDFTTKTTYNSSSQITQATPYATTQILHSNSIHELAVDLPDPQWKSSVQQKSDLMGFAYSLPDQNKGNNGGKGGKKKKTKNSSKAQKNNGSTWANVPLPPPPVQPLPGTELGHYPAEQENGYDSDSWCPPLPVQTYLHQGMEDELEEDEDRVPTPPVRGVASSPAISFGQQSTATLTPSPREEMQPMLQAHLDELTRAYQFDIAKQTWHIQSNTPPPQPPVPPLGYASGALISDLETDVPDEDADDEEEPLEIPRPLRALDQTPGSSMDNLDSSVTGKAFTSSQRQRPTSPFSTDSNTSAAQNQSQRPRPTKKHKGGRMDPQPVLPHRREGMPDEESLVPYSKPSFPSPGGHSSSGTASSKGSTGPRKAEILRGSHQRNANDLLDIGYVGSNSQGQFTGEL
Put plainly: flow cytometry, HEK293 cells, average of n = 3. As to the method: Binding of the antibodies was detected using a secondary fluorochrome conjugated anti-human IgG F(ab′)₂ antibody and samples were analyzed on a Fortessa cytometer (BD Biosciences). The fold ROBO2 selectivity was calculated as the geometric mean fluorescence intensity (Geo MFI) with ROBO2 cells/Geo MFI with ROBO1 cells. A fold change higher than 3 was considered to be ROBO2 specific (Table 2, Fold Selectivity). Some affinity matured clones had increased ROBO1 reactivity, for example Abcs 55, CTI-R2-10 and CTIR2-13.
Based upon several criteria, Abcs25 and Abcs35 were selected for further characterization. Using flow cytometry, improvement in the binding EC₅₀ to human ROBO2 relative to the parental 93H2 was evaluated. Starting at 6.7 nM, 11-point, 3-fold dilution series were made for each antibody and used to stain HEK293 overexpressing human ROBO2 as described above for the ROBO2 fold selectivity (Example 2). […] In addition to measuring improved binding to human ROBO2, it was important to ensure that high affinity binding to both cynomolgus monkey ROBO2 and rat ROBO2 was maintained. Using HEK293 cells overexpressing either cynomolgus monkey ROBO2 or rat ROBO2, the relative dose-dependent binding of 93H2, Abcs25 and Abcs35 was evaluated as described above. High affinity binding to both cynomolgus monkey and rat ROBO2 was maintained in Abcs25 and Abcs35 (Table 4). […] Briefly, Abcs35 was immobilized to 300 resonance units (RU) on a CM5 chip. Association of ROBO2 Ig1-Ig2-His (ROBO2) was measured over 5 minutes and dissociation was followed for a period of 10 minutes.
In turn, B1 showed an EC50 of 1.2 nM.
B2 displayed an EC50 of 0.048 nM.
For B3 the value was 0.062 nM.
